Data as given in paper PMC10194908 (PLOS ONE, 2023).

How the values were obtained:
[1] = target: T1, Recombinant NS1 from DENV-4-Dominica/814669/1981 (dengue virus serotype 4 …, UniProt P09866); assay: immunoblot; details: both partners purified
T1 construct: also called DENV-4 NS1
Target sequence in this assay (P09866 775-1126): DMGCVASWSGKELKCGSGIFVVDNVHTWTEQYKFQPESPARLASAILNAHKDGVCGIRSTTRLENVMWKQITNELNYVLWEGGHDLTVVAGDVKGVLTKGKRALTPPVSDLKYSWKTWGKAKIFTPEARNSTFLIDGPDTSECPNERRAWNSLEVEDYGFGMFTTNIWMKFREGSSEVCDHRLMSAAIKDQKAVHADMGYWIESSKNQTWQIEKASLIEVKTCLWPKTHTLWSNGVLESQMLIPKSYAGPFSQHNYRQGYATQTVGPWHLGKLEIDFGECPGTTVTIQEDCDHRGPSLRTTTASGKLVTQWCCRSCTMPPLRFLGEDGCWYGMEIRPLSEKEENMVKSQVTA

[2] = target: T2, Recombinant NS1 from DENV-3-Sri Lanka D3/H/IMTSSA-SRI/2000/1266 (dengue virus serotype 3 (Sri Lanka …, UniProt Q6YMS4)); assay: immunoblot; details: both partners purified
T2 construct: also called DENV-3 NS1

[3] = target: T1, Recombinant NS1 from …; assay: BLI; details: both partners purified
[4] = target: NS1 secreted from Vero cells infected with DENV-4-2641Y08 (Dengue virus type 4, strain 2641Y08 …, UniProt F8TEL4, strain); assay: ELISA; details: one partner purified
[5] = target: NS1 secreted from Vero cells infected with DENV-3-CHD94-089 (Dengue virus 3, strain CHD94-089 …, strain); assay: ELISA; details: one partner purified
[6] = target: NS1 secreted from Vero cells infected with DENV-2-TSV01 (Dengue virus type 2, strain TSV01 …, UniProt Q91H74, strain); assay: ELISA; details: one partner purified
[7] = target: NS1 secreted from Vero cells infected with DENV-3-VN32/96 (Dengue virus 3, strain VN32/96 (paper: …, strain)); assay: ELISA; details: one partner purified
[8] = target: NS1 secreted from Vero cells infected with DENV-2-D2Y98P (Dengue virus type 2, strain D2Y98P …, UniProt F8TRW4, strain); assay: ELISA; details: one partner purified
[9] = target: T2, Recombinant NS1 from DENV-3-Sri Lanka …; assay: ELISA; details: both partners purified
[10] = target: NS1 secreted from Vero cells infected with DENV-4-TVP360 (Dengue virus type 4, strain TVP360 …, UniProt D2KQW6, strain); assay: ELISA; details: one partner purified

Measured: binding result

T2 sequence (Q6YMS4 774-1125): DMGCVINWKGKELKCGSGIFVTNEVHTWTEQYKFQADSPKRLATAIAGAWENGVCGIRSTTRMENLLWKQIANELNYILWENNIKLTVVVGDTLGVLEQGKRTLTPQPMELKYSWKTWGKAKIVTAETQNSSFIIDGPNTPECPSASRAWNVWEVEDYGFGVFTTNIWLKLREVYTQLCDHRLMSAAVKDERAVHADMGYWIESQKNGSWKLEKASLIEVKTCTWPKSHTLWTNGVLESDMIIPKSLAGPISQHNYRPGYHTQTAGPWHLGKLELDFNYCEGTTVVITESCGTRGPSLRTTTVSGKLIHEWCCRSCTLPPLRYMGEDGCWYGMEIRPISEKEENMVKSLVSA

B1: D6 (antibody, V domains shown)
VH: EVQLVQSGGGLVQPGRSLRLSCAASGFTFQDYAMHWVRQAPGKGLEWVSGIGRDSGTIDYADSVKGRFTISRDNAKNSLYLQMNSLRAEDTALYYCAKISNGYRPDNWGQGTLVTVSS
VL: VLTQPPSVSVSPGQTARITCSGDVLAKRYARWFQQKPGQAPVVVIYKDSERPSGIPERLSGSSSGTTVTLTISGAQVEDEADYYCYCAADNNVVFGGGTKLTVL
notes: also called D6-HRP; HRP-D6
binds: [1]

B2: A2 (antibody, V domains shown)
VH: QVQLQESGGGVVQPGRSLRLFCAASGFTFSAFSTYAIHWVRQAPGKGLEWVAVISYDANNKYYADSVKGRFTISRDNFKSTLFLQMNSLRAEDTAVYYCARDRSDSGYDSYYYYYGMDVWGQGTTVTVSS
VL: QSVVTQPPSVSAAPGQKVTISCSGSSSNIGRNYVSWYQHLPGTAPKLLIYDNNKRRSGIPDRFSGSKSDTTATLGITGLQTVDEADYYCGSWDNSLSAYVFGTGTKVTV
notes: also called A2-HRP
binds: [2] | [3]

B3: D8 (antibody, V domains shown)
VH: QVQLQESGPGLVKPSETLPLTCTVSGGSISNNGFYWGWIRQPPGKGLEWIGNIYYRGSTYYNPSLNSRVTISVDTSKNQFSLQLNSVTAADTAVYYCARLGIQLWFAIDYWGQGTLVTVSS
VL: SVLTQPPAVSVALGQTVRITCQGDSLRSSYASWYQQKPGQAPVLIFYAKNNRPSGIPDRFSGSSSGNTASLTITGAQAEDEADYYCYSRDSSGNLWVFGGGTKLTVL
notes: also called D8-HRP; HRP-D8
binds: [4] | [5] | [6] | [7] | [8] | [9] | [10]
